System: T1, fluorogenic peptide CAGSGSGPR-AMC (AMC=7-amino-4-methyl-coumarin)
T1 sequence: CAGSGSGPR

trypsin
release of fluorescent AMC (cleavage of the immobilized fluorogenic peptide): Adding trypsin to these disks results in the release of fluorescent AMC
